Broadly, the Km is the substrate concentration at which the rate is half of its maximum. One may read the Vmax as the rate approached at saturating substrate.

Substrate in the data set: O=[N+]([O-])c1ccc(OP(=O)(O)O)cc1
In words: purified protein. The following applies: pH 8.0; 37.0 °C.

B1: RsbU phosphatase domain (Mycobacterium tuberculosis H37Rv) (protein)
chain: AAGGDWFDALALGDRLVLVVGDVVGHGVEAAAVMSQLRTALRMQISAGYTVVEALEAVDRFHKQVPGSKSATMCVGSLDFTSGEFQYCTAGHPPPLLVTADASARYVEPTGAGPLGSGTGFPVRSEVLNIGDAILFYTDGLIERPGRPLEASTAEFADLAASIASGSGGFVLDAPARPIDRLCSDTLELLLRSTGYNDDVTLLAMQRR
With B1, the Km worked out at 7.47 ± 1.22 mM and the Vmax turned out to be 0.07 µmol/min/mg.

B2: PAS+phosphatase fusion protein (Mycobacterium tuberculosis H37Rv) (protein)
chain: MAAEMDWDKTVGAAEDVRRIFEHIPAILVGLEGPDHRFVAVNAAYRGFSPLLDTVGQPAREVYPELEGQQIYEMLDRVYQTGEPQSGSEWRLQTDYDGSGVEERYFDFVVTPRRRADGSIEGVQLIVDDVTSRVRARQAAEARVEELSERYRNVRDSATVMQQALLAASVPVVPGADIAAEYLVAAEDTAAGGDWFDALALGDRLVLVVGDVVGHGVEAAAVMSQLRTALRMQISAGYTVVEALEAVDRFHKQVPGSKSATMCVGSLDFTSGEFQYCTAGHPPPLLVTADASARYVEPTGAGPLGSGTGFPVRSEVLNIGDAILFYTDGLIERPGRPLEASTAEFADLAASIASGSGGFVLDAPARPIDRLCSDTLELLLRSTGYNDDVTLLAMQRR
On to B2, for which the Km amounted to 2.54 ± 0.35 mM and the Vmax was 0.07 µmol/min/mg.

Values taken from paper PMC3662962.
